Among the data in patent US20200407708A1 are percent of protein biotinylated (shifted in the presence of streptavidin) values, retold here.

The experiment has as its target streptavidin (UniProt P22629). The experiment can be described thus: gel shift with streptavidin.
Sequence of UniProt P22629 (P22629 37-163 limits assumed): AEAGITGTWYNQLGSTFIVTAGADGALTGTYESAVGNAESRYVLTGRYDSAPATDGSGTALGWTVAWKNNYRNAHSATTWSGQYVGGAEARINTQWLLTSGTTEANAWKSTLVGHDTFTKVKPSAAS

Take biotinylated SpyCatcher002 (S50C): the percent of protein biotinylated (shifted in the presence of streptavidin) stood at 90%.
